The assay has as its target mRuby2-Tau (human Tau full length) (human) (UniProt P10636). The assay can be described thus: FRET or BRET; FLIM-FRET (clover donor lifetime) in living SH-SY5Y cells after hyperosmotic stress (sucrose); only pixels belonging to BAG2 condensates fitted. Background: BRET reads energy transfer from a luciferase to a nearby fluorophore.
UniProt P10636, sequence (P10636 2-758): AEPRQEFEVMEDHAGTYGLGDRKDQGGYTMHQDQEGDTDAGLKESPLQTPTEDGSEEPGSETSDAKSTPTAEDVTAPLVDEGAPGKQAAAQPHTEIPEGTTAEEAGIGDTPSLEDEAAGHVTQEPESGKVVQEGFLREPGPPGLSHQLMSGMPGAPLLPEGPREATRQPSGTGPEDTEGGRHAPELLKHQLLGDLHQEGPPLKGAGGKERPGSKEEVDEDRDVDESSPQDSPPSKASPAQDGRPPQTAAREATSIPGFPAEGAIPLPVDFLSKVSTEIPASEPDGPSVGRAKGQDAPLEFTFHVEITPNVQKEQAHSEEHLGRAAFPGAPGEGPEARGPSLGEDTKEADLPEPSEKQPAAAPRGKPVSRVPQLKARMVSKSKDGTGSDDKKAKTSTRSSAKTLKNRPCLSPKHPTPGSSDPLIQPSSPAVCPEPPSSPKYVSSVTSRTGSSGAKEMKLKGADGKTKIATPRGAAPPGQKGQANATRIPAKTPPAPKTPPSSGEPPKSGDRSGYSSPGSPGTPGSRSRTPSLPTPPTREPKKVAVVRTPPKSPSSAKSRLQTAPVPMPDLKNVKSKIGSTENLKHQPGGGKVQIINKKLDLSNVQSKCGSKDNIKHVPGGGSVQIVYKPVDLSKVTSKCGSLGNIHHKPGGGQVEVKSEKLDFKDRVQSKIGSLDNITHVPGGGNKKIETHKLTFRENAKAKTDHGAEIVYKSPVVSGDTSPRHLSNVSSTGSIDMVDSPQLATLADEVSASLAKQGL

In the case of “mClover2-BAG2 (Bcl2-associated athanogene 2, full length) (from UniProt O95816 1-211) (natural protein)”, the fluorescence lifetime of the donor (FLIM-FRET), pixels of BAG2 condensates after stress was 2.8 ns.

Values taken from article PMC9163039.
